Test results published in patent US20240400722A1 (MILTENYI BIOTEC B V, published 2024).

B2: M1 ΔAA displayed on yeast (VHH, not shown: large carriers; small tags and cut ends)
chain: QVQLVESGGGLVQAGGSLRLSATASGRTGTIYSMAWFRQAPGKEREFLAPVALGLQSTYYMDSVKGRFTISRDKGKNTVYLQMDSLKPEDTAVYYATATRAYSVGYDYWGQGTQVTVSS
notes: also called acVHH-M1 C22A C96A
B3: M1 ΔWA displayed on yeast (VHH, not shown: large carriers; small tags and cut ends)
chain: QVQLVESGGGLVQAGGSLRLSWTASGRTGTIYSMAWFRQAPGKEREFLAPVALGLQSTYYMDSVKGRFTISRDKGKNTVYLQMDSLKPEDTAVYYATATRAYSVGYDYWGQGTQVTVSS
notes: also called acVHH-M1 C22W C96A
B4: M1 ΔAW displayed on yeast (VHH, not shown: large carriers; small tags and cut ends)
chain: QVQLVESGGGLVQAGGSLRLSATASGRTGTIYSMAWFRQAPGKEREFLAPVALGLQSTYYMDSVKGRFTISRDKGKNTVYLQMDSLKPEDTAVYYWTATRAYSVGYDYWGQGTQVTVSS
notes: also called acVHH-M1 C22A C96W
B5: M1 ΔWP displayed on yeast (VHH, not shown: large carriers; small tags and cut ends)
chain: QVQLVESGGGLVQAGGSLRLSWTASGRTGTIYSMAWFRQAPGKEREFLAPVALGLQSTYYMDSVKGRFTISRDKGKNTVYLQMDSLKPEDTAVYYPTATRAYSVGYDYWGQGTQVTVSS
notes: also called acVHH-M1 C22W C96P
B6: M1 ΔFA displayed on yeast (VHH, not shown: large carriers; small tags and cut ends)
chain: QVQLVESGGGLVQAGGSLRLSFTASGRTGTIYSMAWFRQAPGKEREFLAPVALGLQSTYYMDSVKGRFTISRDKGKNTVYLQMDSLKPEDTAVYYATATRAYSVGYDYWGQGTQVTVSS
notes: also called acVHH-M1 C22F C96A
B7: M1 ΔGW displayed on yeast (VHH, not shown: large carriers; small tags and cut ends)
chain: QVQLVESGGGLVQAGGSLRLSGTASGRTGTIYSMAWFRQAPGKEREFLAPVALGLQSTYYMDSVKGRFTISRDKGKNTVYLQMDSLKPEDTAVYYWTATRAYSVGYDYWGQGTQVTVSS
notes: also called acVHH-M1 C22G C96W
B8: His tag-acVHH-V104D, soluble (VHH, not shown: small tags and cut ends)
VHH: QVQLVESGGGLVQAGGSLRLSCTASGRTGTIYSMAWFRQAPGKEREFLATVGWSSGITYYMDSVKGRFTISRDKGKNTVYLQMDSLKPEDTAVYYCTATRAYSDGYDYWGQGTQVTVSS
notes: also called AB1; Tag-V104D
B9: M1 ΔAV displayed on yeast (VHH, not shown: large carriers; small tags and cut ends)
chain: QVQLVESGGGLVQAGGSLRLSATASGRTGTIYSMAWFRQAPGKEREFLAPVALGLQSTYYMDSVKGRFTISRDKGKNTVYLQMDSLKPEDTAVYYVTATRAYSVGYDYWGQGTQVTVSS
notes: also called acVHH-M1 C22A C96V
B10: M1 ΔVA displayed on yeast (VHH, not shown: large carriers; small tags and cut ends)
chain: QVQLVESGGGLVQAGGSLRLSVTASGRTGTIYSMAWFRQAPGKEREFLAPVALGLQSTYYMDSVKGRFTISRDKGKNTVYLQMDSLKPEDTAVYYATATRAYSVGYDYWGQGTQVTVSS
notes: also called acVHH-M1 C22V C96A
B11: acVHH-V104D displayed on yeast (Aga2p-HA-tag-(Gly4Ser)3 linker-acVHH-V104D-c-myc tag) (VHH, not shown: large carriers; small tags and cut ends)
VHH: QVQLVESGGGLVQAGGSLRLSCTASGRTGTIYSMAWFRQAPGKEREFLATVGWSSGITYYMDSVKGRFTISRDKGKNTVYLQMDSLKPEDTAVYYCTATRAYSDGYDYWGQGTQVTVSS

Tests used:
[1] = target: T1, acVHH-WT displayed on yeast (Aga2p-HA-tag-(Gly4Ser)3 linker-acVHH-WT-c-myc tag); test: yeast surface display; 400 nM soluble acVHH-WT, caffeine titrated (data of FIG. 3I); mean ± S.D.
T1 construct: Yeast surface display fusion on S. cerevisiae EBY100
T1 sequence (chain, as listed by the source): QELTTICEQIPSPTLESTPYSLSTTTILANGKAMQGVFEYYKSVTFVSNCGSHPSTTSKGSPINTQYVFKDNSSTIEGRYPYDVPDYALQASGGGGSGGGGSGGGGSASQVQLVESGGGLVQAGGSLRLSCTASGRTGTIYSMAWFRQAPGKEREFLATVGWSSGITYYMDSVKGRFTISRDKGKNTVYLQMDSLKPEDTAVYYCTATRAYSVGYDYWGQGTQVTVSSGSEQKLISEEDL
From the text: (§1) Measured with yeast display and normalized to maximum binding signal (n=3, averages±standard deviations).

[2] = target: B8; test: yeast surface display, flow cytometry (n=1)
[3] = target: T1, acVHH-WT displayed on yeast …; test: yeast surface display, flow cytometry; soluble acVHH-V104D with 10 µM compound or without
Procedure: Expression of the acVHH variants on yeast was induced by culturing the cells in SG-CAA medium (20 g/L galactose, 2 g/L glucose, 6.7 g/L yeast nitrogen base, 5 g/L bacto casamino acids, 10.2 g/L Na₂HPO₄*7 H₂O, 8.56 g/L NaH₂PO₄*H₂O) overnight at 20° C. and 180 rpm. Detection of full-length proteins on the surface of the cells was carried out by staining the cells with anti-c-myc AlexaFluor 488 (9E10, Thermo Fisher).

[4] = target: B11; test: yeast surface display, flow cytometry; soluble acVHH-V104D with and without 10 µM caffeine
Procedure: (§2) The staining for flow cytometry characterization was performed in PBSA (PBS containing 15 μM bovine serum albumin). […] After a final washing step, the cells were analyzed with a CytoFLEX S flow cytometer (Beckman Coulter).

[5] = target: B9; test: yeast surface display, flow cytometry; soluble acVHH-V104D with and without 10 µM caffeine (n=1)
[6] = target: B4; test: as above
[7] = target: B6; test: as above
[8] = target: B7; test: as above
[9] = target: B10; test: as above
[10] = target: B3; test: as above
[11] = target: B5; test: as above
[12] = target: B2; test: as above
[13] = target: T2, acVHH-M1 displayed on yeast (Aga2p-HA-tag-(Gly4Ser)3 linker-acVHH-M1-c-myc tag); test: yeast surface display; 400 nM soluble acVHH-V104D, caffeine titrated (data of FIG. 3I); mean ± S.D.
T2 construct: also called AB2
Procedure: (§3) Expression of the variants on yeast was carried out in SG-CAA as described above.
as §1

[14] = target: T3, dfM1-1 displayed on yeast (Aga2p-HA-tag-(Gly4Ser)3 linker-dfM1-1-c-myc tag); test: as above
T3 construct: also called disulfide free M1 variant
Procedure: as §3, §1

[15] = target: T4, dfM1-2 displayed on yeast (Aga2p-HA-tag-(Gly4Ser)3 linker-dfM1-2-c-myc tag); test: as above
T4 construct: also called disulfide free M1 variant
Procedure: as §3, §1

[16] = target: T2, acVHH-M1 displayed on yeast …; test: yeast surface display titration with soluble acVHH-V104D, 30 µM caffeine, signal normalised to the maximum
[17] = target: T3, dfM1-1 displayed on yeast …; test: as above
[18] = target: T4, dfM1-2 displayed on yeast …; test: as above
[19] = target: T2, acVHH-M1 displayed on yeast …; test: yeast surface display titration with soluble acVHH-V104D, + caffeine (30 µM, data of FIG. 3H); mean ± S.D.
[20] = target: T3, dfM1-1 displayed on yeast …; test: as above
[21] = target: T4, dfM1-2 displayed on yeast …; test: as above
[22] = target: B8; test: yeast surface display, flow cytometry
Procedure: as §2

B1: His tag-acVHH-WT anti-caffeine nanobody, soluble (VHH)
VHH: QVQLVESGGGLVQAGGSLRLSCTASGRTGTIYSMAWFRQAPGKEREFLATVGWSSGITYYMDSVKGRFTISRDKGKNTVYLQMDSLKPEDTAVYYCTATRAYSVGYDYWGQGTQVTVSS
notes: Expressed in E. coli; also called AB0; not shown: His tag
[1]
  EC50,YSD (caffeine concentration for half-maximal dimerisation): 4300 nM

## B2
[2]
  binding result: no binding

## B3
[2]
  binding result: no binding

## B4
[2]
  binding result: no binding

## B5
[2]
  binding result: no binding

## B6
[2]
  binding result: no binding

## B7
[2]
  binding result: no binding

## B8
[3]
  binding result: no binding (tested: 500 nM)
[4]
  binding result: no binding (tested: 500 nM)
[5]
  binding result: no binding (tested: 500 nM)
[6]
  binding result: no binding (tested: 500 nM)
[7]
  binding result: no binding (tested: 500 nM)
[8]
  binding result: no binding (tested: 500 nM)
[9]
  binding result: no binding (tested: 500 nM)
[10]
  binding result: no binding (tested: 500 nM)
[11]
  binding result: no binding (tested: 500 nM)
[12]
  binding result: no binding (tested: 500 nM)
[13]
  EC50,YSD (caffeine concentration for half-maximal dimerisation): 104000 nM
[14]
  EC50,YSD (caffeine concentration for half-maximal dimerisation): 83000 nM
[15]
  EC50,YSD (caffeine concentration for half-maximal dimerisation): 124000 nM
[16]
  EC50 (read off the curve): ~30 nM
[17]
  EC50 (read off the curve): ~20 nM
[18]
  EC50 (read off the curve): ~20 nM
[19]
  Kd: 30 nM
[20]
  Kd: 18.8 nM
[21]
  Kd: 21.8 nM

## B9
[2]
  binding result: no binding

## B10
[2]
  binding result: no binding

## B11
[22]
  binding result: no binding
